Laboratory results from article PMC8298264, “Function of cofactor Akirin2 in the regulation of gene expression in model human neutrophil-like HL60 cells” (Bioscience Reports, 2021).

B1: Spartin (protein, UniProt Q8N0X7 1-666, looked up)
Spartin: MEQEPQNGEPAEIKIIREAYKKAFLFVNKGLNTDELGQKEEAKNYYKQGIGHLLRGISISSKESEHTGPGWESARQMQQKMKETLQNVRTRLEILEKGLATSLQNDLQEVPKLYPEFPPKDMCEKLPEPQSFSSAPQHAEVNGNTSTPSAGAVAAPASLSLPSQSCPAEAPPAYTPQAAEGHYTVSYGTDSGEFSSVGEEFYRNHSQPPPLETLGLDADELILIPNGVQIFFVNPAGEVSAPSYPGYLRIVRFLDNSLDTVLNRPPGFLQVCDWLYPLVPDRSPVLKCTAGAYMFPDTMLQAAGCFVGVVLSSELPEDDRELFEDLLRQMSDLRLQANWNRAEEENEFQIPGRTRPSSDQLKEASGTDVKQLDQGNKDVRHKGKRGKRAKDTSSEEVNLSHIVPCEPVPEEKPKELPEWSEKVAHNILSGASWVSWGLVKGAEITGKAIQKGASKLRERIQPEEKPVEVSPAVTKGLYIAKQATGGAAKVSQFLVDGVCTVANCVGKELAPHVKKHGSKLVPESLKKDKDGKSPLDGAMVVAASSVQGFSTVWQGLECAAKCIVNNVSAETVQTVRYKYGYNAGEATHHAVDSAVNVGVTAYNINNIGIKAMVKKTATQTGHTLLEDYQIVDNSQRENQEGAANVNVRGEKDEQTKEVKEAKKKDK
B2: Azurocidin (protein, UniProt P20160 27-248, looked up)
Azurocidin: IVGGRKARPRQFPFLASIQNQGRHFCGGALIHARFVMTAASCFQSQNPGVSTVVLGAYDLRRRERQSRQTFSISSMSENGYDPQQNLNDLMLLQLDREANLTSSVTILPLPLQNATVEAGTRCQVAGWGSQRSGGRLSRFPRFVNVTVTPEDQCRPNNVCTGVLTRRGGICNGDGGTPLVCEGLAHGVASFSLGPCGRGPDFFTRVALFRDWIDGVLNNPGP
B3: Cystatin-F (protein, UniProt O76096 20-145, looked up)
Cystatin-F: GPSPDTCSQDLNSRVKPGFPKTIKTNDPGVLQAARYSVEKFNNCTNDMFLFKESRITRALVQIVKGLKYMLEVEIGRTTCKKNQHLRLDDCDFQTNHTLKQTLSCYSEVWVVPWLQHFEVPVLRCH
B4: Non-secretory ribonuclease (protein, UniProt P10153 28-161, looked up)
Non-secretory ribonuclease: KPPQFTWAQWFETQHINMTSQQCTNAMQVINNYQRRCKNQNTFLLTTFANVVNVCGNPNMTCPSNKTRKNCHHSGSQVPLIHCNLTTPSPQNISNCRYAQTPANMFYIVACDNRDQRRDPPQYPVVPVHLDRII
B5: Protein Churchill (protein, UniProt Q8WUH1 1-112, looked up)
Protein Churchill: MCGDCVEKEYPNRGNTCLENGSFLLNFTGCAVCSKRDFMLITNKSLKEEDGEEIVTYDHLCKNCHHVIARHEYTFSIMDEFQEYTMLCLLCGKAEDTISILPDDPRQMTLLF
B6: Serglycin (protein, UniProt P10124 28-158, looked up)
Serglycin: YPTRRARYQWVRCNPDSNSANCLEEKGPMFELLPGESNKIPRLRTDLFPKTRIQDLNRIFPLSEDYSGSGFGSGSGSGSGSGSGFLTEMEQDYQLVDESDAFHDNLRSLDRNLPSDSQDLGQHGLEEDFML
B7: sp¦P11766¦ADHX_HUMAN (protein, UniProt P11766 2-374, looked up)
Alcohol dehydrogenase class-3: ANEVIKCKAAVAWEAGKPLSIEEIEVAPPKAHEVRIKIIATAVCHTDAYTLSGADPEGCFPVILGHEGAGIVESVGEGVTKLKAGDTVIPLYIPQCGECKFCLNPKTNLCQKIRVTQGKGLMPDGTSRFTCKGKTILHYMGTSTFSEYTVVADISVAKIDPLAPLDKVCLLGCGISTGYGAAVNTAKLEPGSVCAVFGLGGVGLAVIMGCKVAGASRIIGVDINKDKFARAKEFGATECINPQDFSKPIQEVLIEMTDGGVDYSFECIGNVKVMRAALEACHKGWGVSVVVGVAASGEEIATRPFQLVTGRTWKGTAFGGWKSVESVPKLVSEYMSKKIKVDEFVTHNLSFDEINKAFELMHSGKSIRTVVKI
B8: sp¦P29218¦IMPA1_HUMAN (protein, UniProt P29218 1-277, looked up)
Inositol monophosphatase 1: MADPWQECMDYAVTLARQAGEVVCEAIKNEMNVMLKSSPVDLVTATDQKVEKMLISSIKEKYPSHSFIGEESVAAGEKSILTDNPTWIIDPIDGTTNFVHRFPFVAVSIGFAVNKKIEFGVVYSCVEGKMYTARKGKGAFCNGQKLQVSQQEDITKSLLVTELGSSRTPETVRMVLSNMEKLFCIPVHGIRSVGTAAVNMCLVATGGADAYYEMGIHCWDVAGAGIIVTEAGGVLMDVTGGPFDLMSRRVIAANNRILAERIAKEIQVIPLQRDDED
B9: sp¦Q13177¦PAK2_HUMAN (protein, UniProt Q13177 2-524, looked up)
Serine/threonine-protein …: SDNGELEDKPPAPPVRMSSTIFSTGGKDPLSANHSLKPLPSVPEEKKPRHKIISIFSGTEKGSKKKEKERPEISPPSDFEHTIHVGFDAVTGEFTGMPEQWARLLQTSNITKLEQKKNPQAVLDVLKFYDSNTVKQKYLSFTPPEKDGFPSGTPALNAKGTEAPAVVTEEEDDDEETAPPVIAPRPDHTKSIYTRSVIDPVPAPVGDSHVDGAAKSLDKQKKKTKMTDEEIMEKLRTIVSIGDPKKKYTRYEKIGQGASGTVFTATDVALGQEVAIKQINLQKQPKKELIINEILVMKELKNPNIVNFLDSYLVGDELFVVMEYLAGGSLTDVVTETCMDEAQIAAVCRECLQALEFLHANQVIHRDIKSDNVLLGMEGSVKLTDFGFCAQITPEQSKRSTMVGTPYWMAPEVVTRKAYGPKVDIWSLGIMAIEMVEGEPPYLNENPLRALYLIATNGTPELQNPEKLSPIFRDFLNRCLEMDVEKRGSAKELLQHPFLKLAKPLSSLTPLIMAAKEAMKSNR
B10: sp¦Q92945¦FUBP2_HUMAN (protein, UniProt Q92945 2-711, looked up)
Far upstream element-binding …: SDYSTGGPPPGPPPPAGGGGGAGGAGGGPPPGPPGAGDRGGGGPGGGGPGGGSAGGPSQPPGGGGPGIRKDAFADAVQRARQIAAKIGGDAATTVNNSTPDFGFGGQKRQLEDGDQPESKKLASQGDSISSQLGPIHPPPRTSMTEEYRVPDGMVGLIIGRGGEQINKIQQDSGCKVQISPDSGGLPERSVSLTGAPESVQKAKMMLDDIVSRGRGGPPGQFHDNANGGQNGTVQEIMIPAGKAGLVIGKGGETIKQLQERAGVKMILIQDGSQNTNVDKPLRIIGDPYKVQQACEMVMDILRERDQGGFGDRNEYGSRIGGGIDVPVPRHSVGVVIGRSGEMIKKIQNDAGVRIQFKQDDGTGPEKIAHIMGPPDRCEHAARIINDLLQSLRSGPPGPPGGPGMPPGGRGRGRGQGNWGPPGGEMTFSIPTHKCGLVIGRGGENVKAINQQTGAFVEISRQLPPNGDPNFKLFIIRGSPQQIDHAKQLIEEKIEGPLCPVGPGPGGPGPAGPMGPFNPGPFNQGPPGAPPHAGGPPPHQYPPQGWGNTYPQWQPPAPHDPSKAAAAAADPNAAWAAYYSHYYQQPPGPVPGPAPAPAAPPAQGEPPQPPPTGQSDYTKAWEEYYKKIGQQPQQPGAPPQQDYTKAWEEYYKKQAQVATGGGPGAPPGSQPDYSAAWAEYYRQQAAYYGQTPGPGGPQPPPTQQGQQQAQ
B11: sp¦Q14019¦COTL1_HUMAN (protein, UniProt Q14019 2-142, looked up)
Coactosin-like protein: ATKIDKEACRAAYNLVRDDGSAVIWVTFKYDGSTIVPGEQGAEYQHFIQQCTDDVRLFAFVRFTTGDAMSKRSKFALITWIGENVSGLQRAKTGTDKTLVKEVVQNFAKEFVISDRKELEEDFIKSELKKAGGANYDAQTE
B12: sp¦Q92900¦RENT1_HUMAN (protein, UniProt Q92900 1-1129, looked up)
Regulator of nonsense …: MSVEAYGPSSQTLTFLDTEEAELLGADTQGSEFEFTDFTLPSQTQTPPGGPGGPGGGGAGGPGGAGAGAAAGQLDAQVGPEGILQNGAVDDSVAKTSQLLAELNFEEDEEDTYYTKDLPIHACSYCGIHDPACVVYCNTSKKWFCNGRGNTSGSHIVNHLVRAKCKEVTLHKDGPLGETVLECYNCGCRNVFLLGFIPAKADSVVVLLCRQPCASQSSLKDINWDSSQWQPLIQDRCFLSWLVKIPSEQEQLRARQITAQQINKLEELWKENPSATLEDLEKPGVDEEPQHVLLRYEDAYQYQNIFGPLVKLEADYDKKLKESQTQDNITVRWDLGLNKKRIAYFTLPKTDSGNEDLVIIWLRDMRLMQGDEICLRYKGDLAPLWKGIGHVIKVPDNYGDEIAIELRSSVGAPVEVTHNFQVDFVWKSTSFDRMQSALKTFAVDETSVSGYIYHKLLGHEVEDVIIKCQLPKRFTAQGLPDLNHSQVYAVKTVLQRPLSLIQGPPGTGKTVTSATIVYHLARQGNGPVLVCAPSNIAVDQLTEKIHQTGLKVVRLCAKSREAIDSPVSFLALHNQIRNMDSMPELQKLQQLKDETGELSSADEKRYRALKRTAERELLMNADVICCTCVGAGDPRLAKMQFRSILIDESTQATEPECMVPVVLGAKQLILVGDHCQLGPVVMCKKAAKAGLSQSLFERLVVLGIRPIRLQVQYRMHPALSAFPSNIFYEGSLQNGVTAADRVKKGFDFQWPQPDKPMFFYVTQGQEEIASSGTSYLNRTEAANVEKITTKLLKAGAKPDQIGIITPYEGQRSYLVQYMQFSGSLHTKLYQEVEIASVDAFQGREKDFIILSCVRANEHQGIGFLNDPRRLNVALTRARYGVIIVGNPKALSKQPLWNHLLNYYKEQKVLVEGPLNNLRESLMQFSKPRKLVNTINPGARFMTTAMYDAREAIIPGSVYDRSSQGRPSSMYFQTHDQIGMISAGPSHVAAMNIPIPFNLVMPPMPPPGYFGQANGPAAGRGTPKGKTGRGGRQKNRFGLPGPSQTNLPNSQASQDVASQPFSQGALTQGYISMSQPSQMSQPGLSQPELSQDSYLGDEFKSQIDVALSQDSTYQGERAYQHGGVTGLSQY
B13: sp¦Q99436¦PSB7_HUMAN (protein, UniProt Q99436 44-277, looked up)
Proteasome subunit beta type-7: TTIAGVVYKDGIVLGADTRATEGMVVADKNCSKIHFISPNIYCCGAGTAADTDMTTQLISSNLELHSLSTGRLPRVVTANRMLKQMLFRYQGYIGAALVLGGVDVTGPHLYSIYPHGSTDKLPYVTMGSGSLAAMAVFEDKFRPDMEEEEAKNLVSEAIAAGIFNDLGSGSNIDLCVISKNKLDFLRPYTVPNKKGTRLGRYRCEKGTTAVLTEKITPLEIEVLEETVQTMDTS

The molecules below were run on human HL60 cells (assay: SWATH-MS proteomics, differential protein representation, akirin2 KO vs WT HL60 cells). Settings: SWATH-MS, akirin2 KO vs WT HL60 cells; over-represented in KO.
Type: cell-based
Procedure, shortened: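 Differential representation compares akirin2 KO with WT HL60 across three biological replicates, 5 µg digest each, acquired by data-independent SWATH on a 120-min gradient. Library built from combined IDA runs searched with Paragon; proteins accepted at 1% FDR, with total-area-sum normalization.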

Molecule | Fold Change | Log (Fold Change)
B1 | 2.789 | 0.4455
B2 | 2.563 | 0.4087
B3 | 2.6697 | 0.4265
B4 | 2.742 | 0.4381
B5 | 2.847 | 0.4544
B6 | 2.81 | 0.4488

Same assay, conditions: akirin2 KO vs WT HL60 cells; sheet "Over-represented in KO"

Molecule | Fold Change | Log (Fold Change)
B7 | 1.096 | 0.03978
B8 | 1.12 | 0.04931
B9 | 1.114 | 0.04699
B10 | 1.125 | 0.05126
B11 | 1.126 | 0.0517
B12 | 1.105 | 0.04317
B13 | 1.138 | 0.056
